Experiments:
[1] = target: Rf IgM contained in native samples from patients with elevated Rf levels; experiment: Elecsys µ-capture (anti-IgM-Ru detection); native sample RF_2_33, Rf 377 IU/mL
[2] = target: Rf IgM contained in native samples from patients with elevated Rf levels; experiment: Elecsys µ-capture (anti-IgM-Ru detection); native sample RF_3_13, Rf 1492 IU/mL
[3] = target: Rf IgM contained in native samples from patients with elevated Rf levels; experiment: Elecsys µ-capture (anti-IgM-Ru detection); native sample RF_3_10, Rf 322 IU/mL
[4] = target: Rf IgM contained in native samples from patients with elevated Rf levels; experiment: Elecsys µ-capture (anti-IgM-Ru detection); native sample C9, Rf 640 IU/mL
[5] = target: Rf IgM contained in native samples from patients with elevated Rf levels; experiment: Elecsys µ-capture (anti-IgM-Ru detection); native sample RF_2_32, Rf 655 IU/mL
[6] = target: Rf IgM contained in native samples from patients with elevated Rf levels; experiment: Elecsys µ-capture (anti-IgM-Ru detection); native sample RF_3_7, Rf 318 IU/mL
[7] = target: Rf IgM contained in native samples from patients with elevated Rf levels; experiment: Elecsys µ-capture (anti-IgM-Ru detection); native sample E8, Rf 339 IU/mL
[8] = target: Rf IgM contained in native samples from patients with elevated Rf levels; experiment: Elecsys µ-capture (anti-IgM-Ru detection); native sample RF-3-11, Rf 383 IU/mL
[9] = target: Rf IgM contained in native samples from patients with elevated Rf levels; experiment: Elecsys µ-capture (anti-IgM-Ru detection); native sample A5, Rf 466 IU/mL
[10] = target: Rf IgM contained in native samples from patients with elevated Rf levels; experiment: Elecsys µ-capture (anti-IgM-Ru detection); native sample RF_3_9, Rf 439 IU/mL
[11] = target: Rf IgM contained in native samples from patients with elevated Rf levels; experiment: Elecsys µ-capture (anti-IgM-Ru detection); native sample B6, Rf 386 IU/mL
[12] = target: Rf IgM contained in native samples from patients with elevated Rf levels; experiment: Elecsys µ-capture (anti-IgM-Ru detection); native sample RF-3-4, Rf 321 IU/mL
[13] = target: Rf IgM contained in native samples from patients with elevated Rf levels; experiment: Elecsys µ-capture (anti-IgM-Ru detection); native sample E2, Rf 423 IU/mL
[14] = target: Rf IgM contained in native samples from patients with elevated Rf levels; experiment: Elecsys µ-capture (anti-IgM-Ru detection); native sample RF_2_31, Rf 457 IU/mL
[15] = target: Rf IgM contained in native samples from patients with elevated Rf levels; experiment: Elecsys µ-capture (anti-IgM-Ru detection); native sample RF_3_12, Rf 457 IU/mL
[16] = target: Rf IgM contained in native samples from patients with elevated Rf levels; experiment: Elecsys µ-capture (anti-IgM-Ru detection); native sample D4, Rf 566 IU/mL
[17] = target: Rf IgM contained in native samples from patients with elevated Rf levels; experiment: Elecsys µ-capture (anti-IgM-Ru detection); native sample RF_3_3, Rf 394 IU/mL
[18] = target: Rf IgM contained in native samples from patients with elevated Rf levels; experiment: Elecsys µ-capture (anti-IgM-Ru detection); native sample D8, Rf 572 IU/mL
[19] = target: Rf IgM contained in native samples from patients with elevated Rf levels; experiment: Elecsys µ-capture (anti-IgM-Ru detection); native sample RF_3_1, Rf 430 IU/mL
[20] = target: Rf IgM contained in native samples from patients with elevated Rf levels; experiment: Elecsys µ-capture (anti-IgM-Ru detection); native sample RF-3-2, Rf 401 IU/mL
[21] = target: Rf IgM contained in native samples from patients with elevated Rf levels; experiment: Elecsys µ-capture (anti-IgM-Ru detection); native sample RF_3_5, Rf 402 IU/mL
[22] = target: Rf IgM contained in native samples from patients with elevated Rf levels; experiment: Elecsys µ-capture (anti-IgM-Ru detection); native sample RF_3_6, Rf 371 IU/mL
[23] = target: Rf IgM contained in native samples from patients with elevated Rf levels; experiment: Elecsys µ-capture (anti-IgM-Ru detection); native sample RF_3_8, Rf 402 IU/mL

Elecsys counts [1]: 9430 counts
Elecsys counts [2]: 4740 counts
Elecsys counts [3]: 8620 counts
Elecsys counts [4]: 8240 counts
Elecsys counts [5]: 4220 counts
Elecsys counts [6]: 7580 counts
Elecsys counts [7]: 118000 counts
Elecsys counts [8]: 69300 counts
Elecsys counts [9]: 11600 counts
Elecsys counts [10]: 14500 counts
Elecsys counts [11]: 103000 counts
Elecsys counts [12]: 99600 counts
Elecsys counts [13]: 102000 counts
Elecsys counts [14]: 27300 counts
Elecsys counts [15]: 5670 counts
Elecsys counts [16]: 13300 counts
Elecsys counts [17]: 5850 counts
Elecsys counts [18]: 242000 counts
Elecsys counts [19]: 19700 counts
Elecsys counts [20]: 282000 counts
Elecsys counts [21]: 10400 counts
Elecsys counts [22]: 24500 counts
Elecsys counts [23]: 6820 counts
B1: 21F12 F(ab′)2 fragment (protein)
VH: EVQLQQSGPELLKPGASVKISCKASGFTFTDYTMHWMKQSHGKSLEWIGGINPNSGGTIYNEKFKDKATLTVDKSSRTAYMELRSLTSEDSAVYFCTRGVYDGYFYWGQGTLVTVSA
VL: DVVMTQTPLSLPVSLGDQASISCRSSQSLVYSNGNTFLHWYLQKPGQSPKLLIYKVSTRFSGVPDRFSGSGSGSDFTLKISRVEAEDLGIYFCSQTTHAPFTFGSGTKLAIR

— patent US20240352110A1
